The source of these data is patent publication US20210139579A1.

This experiment deals with human ROR1 (hROR1) on the cell surface (human) (UniProt Q01973). Briefly: cell-based or functional assay.
Chain of human ROR1 (hROR1) on the cell surface (human) (Q01973 30-937): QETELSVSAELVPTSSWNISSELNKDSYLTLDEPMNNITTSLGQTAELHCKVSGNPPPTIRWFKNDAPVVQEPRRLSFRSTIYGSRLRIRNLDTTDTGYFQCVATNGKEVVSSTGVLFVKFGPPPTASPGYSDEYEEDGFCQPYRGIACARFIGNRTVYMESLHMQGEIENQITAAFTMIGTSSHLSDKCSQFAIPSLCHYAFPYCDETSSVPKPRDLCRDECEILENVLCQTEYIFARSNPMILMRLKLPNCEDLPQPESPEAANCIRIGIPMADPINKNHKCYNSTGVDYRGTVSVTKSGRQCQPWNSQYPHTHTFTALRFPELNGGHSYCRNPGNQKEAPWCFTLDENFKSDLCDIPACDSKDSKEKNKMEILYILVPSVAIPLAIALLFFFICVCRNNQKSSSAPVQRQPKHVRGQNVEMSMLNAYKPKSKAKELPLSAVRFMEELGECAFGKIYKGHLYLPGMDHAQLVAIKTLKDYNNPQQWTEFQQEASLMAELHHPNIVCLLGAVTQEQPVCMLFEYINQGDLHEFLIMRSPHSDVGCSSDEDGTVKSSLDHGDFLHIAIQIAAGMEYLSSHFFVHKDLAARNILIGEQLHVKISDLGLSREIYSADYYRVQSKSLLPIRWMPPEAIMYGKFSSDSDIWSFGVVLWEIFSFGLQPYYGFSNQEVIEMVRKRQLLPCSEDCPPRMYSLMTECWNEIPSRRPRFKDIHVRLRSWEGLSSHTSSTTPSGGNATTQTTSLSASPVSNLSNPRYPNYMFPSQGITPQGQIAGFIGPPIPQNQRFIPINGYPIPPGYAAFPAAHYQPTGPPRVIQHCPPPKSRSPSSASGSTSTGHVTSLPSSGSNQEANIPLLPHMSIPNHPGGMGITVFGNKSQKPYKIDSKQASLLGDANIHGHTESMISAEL

2A2-G5-PNU (antibody) came in with an IC50, in vitro cell killing of 697 cells of 0.125 µg/mL; an IC50, in vitro cell killing of A549 cells of 76.8 µg/mL; an IC50, in vitro cell killing of HS 578T cells of 1.78 µg/mL; an IC50, in vitro cell killing of HT-29 cells of 19.8 µg/mL. Also, the IC50, in vitro cell killing of MDA-MB-468 cells was 0.727 µg/mL.
